How the values were obtained:
[1] = molecular target: Bcl-XL expressed in MCF7 cells (UniProt Q07817); assay: cell-based or functional assay
[2] = molecular target: T1, M11 expressed in MCF7 cells (murine γHV68) (UniProt P89884); assay: cell-based or functional assay
T1 sequence: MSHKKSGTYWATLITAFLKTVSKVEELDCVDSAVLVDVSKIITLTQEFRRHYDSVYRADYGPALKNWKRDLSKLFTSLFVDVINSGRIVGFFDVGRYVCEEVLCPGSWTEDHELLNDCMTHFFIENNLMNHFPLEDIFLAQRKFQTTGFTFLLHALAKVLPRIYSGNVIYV

Bcl-XL expressed in MCF7 cells, sequence (Q07817 whole entry): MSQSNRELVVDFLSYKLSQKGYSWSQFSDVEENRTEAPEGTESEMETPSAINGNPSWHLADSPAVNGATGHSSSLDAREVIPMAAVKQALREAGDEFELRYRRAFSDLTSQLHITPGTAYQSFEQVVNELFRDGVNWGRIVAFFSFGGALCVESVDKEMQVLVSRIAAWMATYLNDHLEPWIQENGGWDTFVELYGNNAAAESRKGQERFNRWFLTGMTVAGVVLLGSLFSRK

| Substance | Bcl-XL-mediated down-regulation of autophagy (GFP-LC3 puncta per cell, MCF7) [1] | M11-mediated down-regulation of autophagy (GFP-LC3 puncta per cell, MCF7) [2] |
| --- | --- | --- |
| Beclin 1 F123A mutant, expressed in MCF7 cells (from UniProt Q14457 1-450) | 0.00246 p (t-test) | 0.0107 p (t-test) |
| Beclin 1 G120E mutant, expressed in MCF7 cells (from UniProt Q14457 1-450) | 0.0119 p (t-test) | 0.0313 p (t-test) |
| Beclin 1 G120E+D121A double mutant, expressed in MCF7 cells (from UniProt Q14457 1-450) | 0.00079 p (t-test) | 0.228 p (t-test) |
| Beclin 1 L116A mutant, expressed in MCF7 cells (from UniProt Q14457 1-450) | 0.00212 p (t-test) | 0.00432 p (t-test) |
| Beclin 1 L112A mutant, expressed in MCF7 cells (from UniProt Q14457 1-450) | 0.0621 p (t-test) | 0.00065 p (t-test) |
| Beclin 1 K117A mutant, expressed in MCF7 cells (from UniProt Q14457 1-450) | 0.504 p (t-test) | 0.157 p (t-test) |

Reference: patent US20160272691A1, “COMPOSITIONS AND METHODS FOR TREATING CONDITIONS ASSOCIATED WITH y-HERPESVIRUSES” (NDSU RESEARCH FOUNDATION, priority 2013, published 2016)
